Data as given in patent US20260097149A1 (RESEARCH FOUNDATION FOR THE STATE UNIVERSITY OF NEW YORK, published 2026).

Biological target: T1, integrin α4β1 (human, UniProt P13612 34-1032; P05556 21-798)
T1 construct: whole, on cells; Present on human PBMNC isolated from blood and on HUVEC; also called α4β1 integrin; CD49d (α4β1 integrin)
Test: capture of PBMNC on immobilised H2R5 against blocking antibody and heparin-only control

T1 sequence (P13612 34-1032, chain 1 of 2): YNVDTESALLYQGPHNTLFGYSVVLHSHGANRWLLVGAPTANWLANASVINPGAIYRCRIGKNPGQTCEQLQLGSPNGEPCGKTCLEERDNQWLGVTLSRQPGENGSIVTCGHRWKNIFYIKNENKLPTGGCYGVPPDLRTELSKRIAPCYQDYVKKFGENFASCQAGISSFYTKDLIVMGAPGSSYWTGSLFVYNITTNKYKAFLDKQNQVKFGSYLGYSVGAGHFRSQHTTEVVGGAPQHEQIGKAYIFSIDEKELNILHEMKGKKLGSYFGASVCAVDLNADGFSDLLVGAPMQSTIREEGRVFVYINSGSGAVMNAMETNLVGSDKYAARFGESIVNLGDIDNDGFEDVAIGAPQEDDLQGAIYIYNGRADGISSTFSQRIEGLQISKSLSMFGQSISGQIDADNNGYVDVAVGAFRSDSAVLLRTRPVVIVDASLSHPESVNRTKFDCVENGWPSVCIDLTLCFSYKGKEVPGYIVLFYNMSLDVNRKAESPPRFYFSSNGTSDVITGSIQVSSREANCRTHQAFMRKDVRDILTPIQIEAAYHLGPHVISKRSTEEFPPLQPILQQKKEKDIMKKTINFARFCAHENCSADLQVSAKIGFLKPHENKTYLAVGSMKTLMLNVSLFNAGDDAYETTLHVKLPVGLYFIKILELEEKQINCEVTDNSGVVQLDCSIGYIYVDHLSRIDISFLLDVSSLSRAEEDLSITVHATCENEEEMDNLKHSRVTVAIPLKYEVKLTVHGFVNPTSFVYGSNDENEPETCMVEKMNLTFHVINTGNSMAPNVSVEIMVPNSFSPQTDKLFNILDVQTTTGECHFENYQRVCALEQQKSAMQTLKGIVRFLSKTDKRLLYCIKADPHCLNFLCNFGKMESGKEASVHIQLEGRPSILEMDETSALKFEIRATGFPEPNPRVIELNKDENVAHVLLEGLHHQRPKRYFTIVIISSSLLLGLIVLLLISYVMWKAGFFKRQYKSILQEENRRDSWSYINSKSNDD
T1 sequence (P05556 21-798, chain 2 of 2): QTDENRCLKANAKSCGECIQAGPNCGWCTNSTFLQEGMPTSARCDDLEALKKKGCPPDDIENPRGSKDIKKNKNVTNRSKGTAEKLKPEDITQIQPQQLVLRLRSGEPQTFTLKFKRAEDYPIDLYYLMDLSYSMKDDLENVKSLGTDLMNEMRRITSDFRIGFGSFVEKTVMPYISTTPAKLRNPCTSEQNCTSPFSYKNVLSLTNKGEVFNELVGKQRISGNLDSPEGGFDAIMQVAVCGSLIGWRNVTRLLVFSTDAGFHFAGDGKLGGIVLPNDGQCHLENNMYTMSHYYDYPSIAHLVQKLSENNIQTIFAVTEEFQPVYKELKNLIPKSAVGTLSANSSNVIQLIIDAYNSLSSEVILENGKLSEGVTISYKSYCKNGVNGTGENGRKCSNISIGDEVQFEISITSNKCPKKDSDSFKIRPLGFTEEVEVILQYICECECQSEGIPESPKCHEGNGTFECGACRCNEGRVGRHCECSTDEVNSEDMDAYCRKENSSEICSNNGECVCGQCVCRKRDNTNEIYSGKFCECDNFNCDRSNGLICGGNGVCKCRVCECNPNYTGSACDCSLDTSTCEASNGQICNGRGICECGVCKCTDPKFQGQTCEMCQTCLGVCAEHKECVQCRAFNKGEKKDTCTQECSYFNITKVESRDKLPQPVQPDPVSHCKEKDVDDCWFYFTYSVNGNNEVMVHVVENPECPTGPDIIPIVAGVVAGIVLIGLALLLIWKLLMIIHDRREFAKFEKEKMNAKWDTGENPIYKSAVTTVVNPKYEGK

B1: H2R5 fusion protein, H2-(GGGS-…)5 (designed binder)
chain: MGSSHHHHHHSSGLVPRGSHMASMTGGQQMGRGSAIPAPTDLKFTQGTPTSLSAQWTPPNVQLTGYRVRVTPKEKTGPMKEINLAPDSSSVVVSGLMVATKYEVSVYALKDTLTSRPAQGVVTTLENVSPPRRARVTDATETTITISWRTKTETITGFQVDAVPANGQTPIQRTIKPDVRSYTITGLQPGTDYKIYLYTLNDNARSSPVVIDASTAIDAPSNLRFLATTPNSLLVSWQPPRARITGYIIKYEKPGSPPREVVPRPRPGVTEATITGLEPGTEYTIYVIALKNNQKSEPLIGHKLGGGGSHIPREDVDYHGGGGSHIPREDVDYHGGGGSHIPREDVDYHGGGGSHIPREDVDYHGGGGSHIPREDVDYHLEHHHHHH
notes: no residue limits are stated; also called fusion peptide (H2R5); His tagged fusion protein
  binding result: binds
